Test [1] concerns the target canine IgM µ-chain antigen (protein accession number E2RE31) (canine (Canis lupus familiaris)). As to the kind of experiment: flow cytometry screening of hybridoma clones on CLBL-1 cells. (In general: In flow cytometry, cells or beads pass a laser one at a time.)
Test [2] shares this target. Put plainly: staining of cells from CLBL-1 xenograft tumours.

B1: CL-m17A11 (antibody, V domains shown)
VH: QIQLQQSGPELVKPGASVKVSCKASGYSFTDYNIYWVKQSHGKSLEWIGFFDPHNGNTTYNQKFKGKATLTVDKSSSTAFMHLNSLTSEDSAVYYCAREGYLYAMDYWGQGTSVTVSS
VL: DVLMTQTPLSLPVSLGDQASISCRSSQSIEHSNGNTYLEWYLQKPGQAPKLLIFKVSNRFSGVPDRFSGSGSGTDFTLKISRMEAEDLGVYYCFQGSHVPPTFGGGTKLEIKR
With B1, in test [1], the % binding (tier threshold of column) is greater than 80%. Moreover, the % of tumour cells positive in test [2] was greater than 95%.

B2: CL-c17A11 (antibody, V domains shown)
VH: B1 VH
VL: B1 VL
With B2, in test [2], the % of tumour cells positive is greater than 95%.

Source of the values: US20250277060A1.
